Target: Recombinant human IL-17A (Sino Biological, 12047-HNAS) (human) (UniProt Q16552)
Test: indirect ELISA, human IL-17A coated (Table 7, not in this copy)

Chain of Recombinant human IL-17A (Sino Biological, 12047-HNAS) (human) (Q16552 24-155): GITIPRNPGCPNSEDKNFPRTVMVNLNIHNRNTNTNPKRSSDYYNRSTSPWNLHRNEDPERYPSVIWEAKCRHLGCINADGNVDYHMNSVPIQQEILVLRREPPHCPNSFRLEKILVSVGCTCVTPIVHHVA

B1: 杂交瘤14F10/9F6产生的鼠源抗体 (antibody, V domains shown)
VH: QVQLQQSGPEVVRPGVSVKISCKGSGYTFTDYAMHWVKQSHAKSLEWIGVIGPYNDNTNYNQKFKGKATMTVDKSSSTAYMEIARLTSEDSAIYYCARGERYFDYWGQGTTLTVSS
VL: DIQMTQSSSYLSVSLGGRVTITCRASDHINNWLAWYQQKPGNAPRLLIYGATSLETGVPSRFSGSGSGKDYTLSITSLQTEDVATYYCQQYWTIPLTFGAGTKLELK
EC50 ratio to the humanized antibody: 3 fold

From CN107522783A
